Positions count from the first letter of the chain named.

Data set [1] has as its target T1, Flag-tagged mouse SPO11 (β splicing isoform), wild type (mouse, UniProt Q9WTK8-1 1-396).
T1 construct: mouse SPO11, β splicing isoform (includes exon 2), UniProt Q9WTK8-1, full-length optimized coding DNA; A TEV cleavage site lies between the Flag tag and SPO11; no cleavage is described; also called Flag–SPO11; mSPO11; not shown: Flag, N-terminal, kept
T1 sequence (looked up): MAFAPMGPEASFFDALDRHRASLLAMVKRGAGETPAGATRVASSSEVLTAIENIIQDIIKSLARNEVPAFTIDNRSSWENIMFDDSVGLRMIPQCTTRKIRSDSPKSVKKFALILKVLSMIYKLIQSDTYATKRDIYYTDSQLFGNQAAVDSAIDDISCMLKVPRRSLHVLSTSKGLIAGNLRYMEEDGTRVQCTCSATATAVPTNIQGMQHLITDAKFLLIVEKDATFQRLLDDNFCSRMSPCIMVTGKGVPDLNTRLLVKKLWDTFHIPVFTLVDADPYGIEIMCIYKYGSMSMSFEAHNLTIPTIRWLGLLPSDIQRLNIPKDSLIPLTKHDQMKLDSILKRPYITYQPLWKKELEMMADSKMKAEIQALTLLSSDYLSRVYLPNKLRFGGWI
Nature of the data set: SEC; proteins co-expressed in FreeStyle 293-F cells; lysate (25 mM HEPES-NaOH pH 7.5, 500 mM NaCl) on anti-Flag M2 affinity gel, eluted with Flag peptide, then Superdex 200 Increase 10/300 GL; fractions on Coomassie-stained SDS-PAGE. As to conditions: partners not purified.

For data set [2], the target named is T2, SPO11 (beta isoform);TOP6BL (Mus musculus;Mus musculus, UniProt Q9WTK8;J3QMY9 1-396;1-579, |).
T2 sequence 1: T1 sequence (looked up)
T2 sequence 2: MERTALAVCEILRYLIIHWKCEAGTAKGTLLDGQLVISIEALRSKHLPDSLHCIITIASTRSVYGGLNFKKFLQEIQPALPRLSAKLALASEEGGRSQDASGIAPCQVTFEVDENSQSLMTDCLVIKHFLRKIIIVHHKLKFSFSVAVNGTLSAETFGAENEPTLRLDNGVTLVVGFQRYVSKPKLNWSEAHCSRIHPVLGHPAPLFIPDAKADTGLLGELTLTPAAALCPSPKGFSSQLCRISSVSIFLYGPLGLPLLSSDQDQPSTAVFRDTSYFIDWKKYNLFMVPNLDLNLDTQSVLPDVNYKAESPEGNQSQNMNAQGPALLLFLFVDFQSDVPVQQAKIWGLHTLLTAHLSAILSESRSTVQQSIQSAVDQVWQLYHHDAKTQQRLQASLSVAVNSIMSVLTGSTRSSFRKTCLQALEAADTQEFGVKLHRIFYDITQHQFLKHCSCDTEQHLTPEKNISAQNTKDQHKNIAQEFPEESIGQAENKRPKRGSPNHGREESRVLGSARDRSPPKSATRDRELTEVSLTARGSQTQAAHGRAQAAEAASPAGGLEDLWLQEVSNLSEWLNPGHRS
Nature of the data set: EMSA; double-end binding possible at 0.8 nM; Hairpin EMSA: 25 mM Tris-HCl pH 7.5, 100 mM NaCl, 5 mM MgCl2, 7.5% glycerol, 2 mM DTT, 1 mg/ml BSA, 0.1 nM DNA, 30 min 30 C; cleavage-oligo EMSA: 25 mM HEPES-NaOH pH 7.5, 50 mM NaCl, 5 mM MgCl2, 7.5% glycerol, 1 mg/ml BSA, 2 mM DTT, 4 C. As to conditions: protein: recombinant;recombinant; tags: N-terminal Flag-TEV;untagged; copies: 1;1; label: 5'-32P; 5' overhang 2 nt (TA) at both ends.

Data set [3] has as its target T2, SPO11 (beta isoform);TOP6BL. Nature of the data set: EMSA; double-end binding disfavoured at 0.8 nM, restored at higher protein; Hairpin EMSA: 25 mM Tris-HCl pH 7.5, 100 mM NaCl, 5 mM MgCl2, 7.5% glycerol, 2 mM DTT, 1 mg/ml BSA, 0.1 nM DNA, 30 min 30 C; cleavage-oligo EMSA: 25 mM HEPES-NaOH pH 7.5, 50 mM NaCl, 5 mM MgCl2, 7.5% glycerol, 1 mg/ml BSA, 2 mM DTT, 4 C. Conditions: protein: recombinant;recombinant; tags: N-terminal Flag-TEV;untagged; copies: 1;1; label: 5'-32P; 5' overhang 2 nt (TA) at both ends.

Data set [4] has the same target. Nature of the data set: EMSA; 5 mM Mg2+, 50 mM NaCl, 4 C; apparent Kd for first monomer; doubly bound complexes formed; Hairpin EMSA: 25 mM Tris-HCl pH 7.5, 100 mM NaCl, 5 mM MgCl2, 7.5% glycerol, 2 mM DTT, 1 mg/ml BSA, 0.1 nM DNA, 30 min 30 C; cleavage-oligo EMSA: 25 mM HEPES-NaOH pH 7.5, 50 mM NaCl, 5 mM MgCl2, 7.5% glycerol, 1 mg/ml BSA, 2 mM DTT, 4 C. Conditions: protein: recombinant;recombinant; tags: N-terminal Flag-TEV;untagged; copies: 1;1; label: 32P (5' labelled, then ligated); closed dumbbell, 44 bp duplex with two A4 hairpin loops.

Data set [5] shares this target. Nature of the data set: EMSA; 5 mM Mg2+; apparent Kd, end binding; second shift at >=25 nM; Hairpin EMSA: 25 mM Tris-HCl pH 7.5, 100 mM NaCl, 5 mM MgCl2, 7.5% glycerol, 2 mM DTT, 1 mg/ml BSA, 0.1 nM DNA, 30 min 30 C; cleavage-oligo EMSA: 25 mM HEPES-NaOH pH 7.5, 50 mM NaCl, 5 mM MgCl2, 7.5% glycerol, 1 mg/ml BSA, 2 mM DTT, 4 C. As to conditions: protein: recombinant;recombinant, tags: N-terminal Flag-TEV;untagged, copies: 1;1, label: 5'-32P, 5' overhang 2 nt.

In a further data set the target is T3, SPO11 E224A;TOP6BL (Mus musculus;Mus musculus, UniProt Q9WTK8;J3QMY9 1-396;1-579, E224A|).
T3 sequence 1: T1 sequence (looked up) with E224A
T3 sequence 2: T2 sequence 2
Nature of the data set: EMSA; 5 mM Mg2+; DNA binding retained; Kd value only in figure; Hairpin EMSA: 25 mM Tris-HCl pH 7.5, 100 mM NaCl, 5 mM MgCl2, 7.5% glycerol, 2 mM DTT, 1 mg/ml BSA, 0.1 nM DNA, 30 min 30 C; cleavage-oligo EMSA: 25 mM HEPES-NaOH pH 7.5, 50 mM NaCl, 5 mM MgCl2, 7.5% glycerol, 1 mg/ml BSA, 2 mM DTT, 4 C. Conditions: protein: recombinant;recombinant, tags: N-terminal Flag-TEV;untagged, copies: 1;1, label: 5'-32P, 5' overhang 2 nt.

The target in the next data set is T4, SPO11 Y138F;TOP6BL (Mus musculus;Mus musculus, UniProt Q9WTK8;J3QMY9 1-396;1-579, Y138F|).
T4 sequence 1: T1 sequence (looked up) with Y138F
T4 sequence 2: T2 sequence 2
Nature of the data set: EMSA; 5 mM Mg2+; apparent Kd; Hairpin EMSA: 25 mM Tris-HCl pH 7.5, 100 mM NaCl, 5 mM MgCl2, 7.5% glycerol, 2 mM DTT, 1 mg/ml BSA, 0.1 nM DNA, 30 min 30 C; cleavage-oligo EMSA: 25 mM HEPES-NaOH pH 7.5, 50 mM NaCl, 5 mM MgCl2, 7.5% glycerol, 1 mg/ml BSA, 2 mM DTT, 4 C. Conditions: protein: recombinant;recombinant, tags: N-terminal Flag-TEV;untagged, copies: 1;1, label: 5'-32P, 5' overhang 2 nt.

In data set [6] the target is T2, SPO11 (beta isoform);TOP6BL. Nature of the data set: EMSA; double-end binding; Hairpin EMSA: 25 mM Tris-HCl pH 7.5, 100 mM NaCl, 5 mM MgCl2, 7.5% glycerol, 2 mM DTT, 1 mg/ml BSA, 0.1 nM DNA, 30 min 30 C; cleavage-oligo EMSA: 25 mM HEPES-NaOH pH 7.5, 50 mM NaCl, 5 mM MgCl2, 7.5% glycerol, 1 mg/ml BSA, 2 mM DTT, 4 C. Conditions: protein: recombinant;recombinant; tags: N-terminal Flag-TEV;untagged; copies: 1;1; label: 5'-32P; 5' overhang 2 nt (TA) at both ends.

B1: mouse TOP6BL, untagged (natural protein, UniProt J3QMY9-1 1-579, looked up)
chain: T2 sequence 2
notes: mouse TOP6BL, UniProt J3QMY9-1, untagged, optimized coding DNA
With B1, the “stoichiometry N” value in data set [1] was 1.

B2: 22 bp double-overhang duplex (dsDNA)
DNA 1: TAGCAATGTAATCGTCTATGACGT
DNA 2: TAACGTCATAGACGATTACATTGC
As to B2, the binding result in data set [2] is given as “binds”.

B3: 27 bp double-overhang duplex (dsDNA)
DNA 1: TAGCAATGTAATCGTCTATGACGTTAGCG
DNA 2: TACGCTAACGTCATAGACGATTACATTGC
For the molecule B3, the binding result in data set [3] is reported as “binds”.

B4: 23 bp double-overhang duplex (dsDNA)
DNA 1: TAGCAATGTAATCGTCTATGACGTT
DNA 2: TAAACGTCATAGACGATTACATTGC
B4: the binding result in data set [2] is “binds”.

B5: 24 bp double-overhang duplex (dsDNA)
DNA 1: TAGCAATGTAATCGTCTATGACGTTA
DNA 2: TATAACGTCATAGACGATTACATTGC
Turning to B5, the binding result in data set [3] was “binds”.

B6: oligonucleotide cleavage substrate (44 bp, A4 loops at both ends) (structured_DNA)
DNA: CGGTTCAAAAGAACCGGAGCTGAATGAAGCCATACCAAACGACGAGCGTGACACAAAAGTGTCACGCTCGTCGTTTGGTATGGCTTCATTCAGCTC
modifications: covalently closed circle (ligated)
Turning to B6, the Kd in data set [4] is 1.8 nM.

B7: 25 bp double-overhang duplex (dsDNA)
DNA 1: TAGCAATGTAATCGTCTATGACGTTAG
DNA 2: TACTAACGTCATAGACGATTACATTGC
In the case of B7, the binding result in data set [3] is “binds”.

B8: 26 bp double-overhang duplex (dsDNA)
DNA 1: TAGCAATGTAATCGTCTATGACGTTAGC
DNA 2: TAGCTAACGTCATAGACGATTACATTGC
Take B8: in data set [3], the binding result was “binds”. As for TAGCAATGTAATCGTCTATGACGTTAACGTCATAGACGATTACATTGC (structured_DNA) [25 bp hairpin, 2-nt 5' overhang], the figures for the Kd (in data set [5]; with SPO11 Y138F;TOP6BL) were 0.59 ± 0.05 nM and 0.57 ± 0.03 nM, respectively. The binding result with SPO11 E224A;TOP6BL is given as “binds”.

B9: 28 bp double-overhang duplex (dsDNA)
DNA 1: TAGCAATGTAATCGTCTATGACGTTAGCGC
DNA 2: TAGCGCTAACGTCATAGACGATTACATTGC
For B9, the binding result in data set [6] is “binds”.
